Target: Aβ42 oligomers
Test: SPR; Biacore T200; AL fibrils (1000 RU) or Aβ42 oligomers (500 RU) amine-coupled on CM5; two-fold serial dilutions of whole antibody injected at 30 μL/min; 25 °C; 10 mM phosphate, 137 mM NaCl, 2.7 mM KCl, 0.05% Tween-20, pH 7.5; global fit to a Langmuir 1:1 model

B1: wild-type crenezumab (antibody, V domains shown)
VH: EVQLVESGGGLVQPGGSLRLSCAASGFTFSSYGMSWVRQAPGKGLELVASINSNGGSTYYPDSVKGRFTISRDNAKNSLYLQMNSLRAEDTAVYYCASGDYWGQGTTVTVSS
VL: DIVMTQSPLSLPVTPGEPASISCRSSQSLVYSNGDTYLHWYLQKPGQSPQLLIYKVSNRFSGVPDRFSGSGSGTDFTLKISRVEAEDVGVYYCSQSTHVPWTFGQGTKVEIK
  Kd: 1.53 nM
  koff: 0.00116 s⁻¹
  kon: 761000 M⁻¹ s⁻¹

Reference: article PMC10855199
